The numbers were not newly measured in PMC10019135, which cites them from elsewhere.

For the series, the target named is IL-2Rβ/γc heterodimer (Homo sapiens) (UniProt P14784).
Sequence of UniProt P14784 (P14784 27-240, chain 1 of 2): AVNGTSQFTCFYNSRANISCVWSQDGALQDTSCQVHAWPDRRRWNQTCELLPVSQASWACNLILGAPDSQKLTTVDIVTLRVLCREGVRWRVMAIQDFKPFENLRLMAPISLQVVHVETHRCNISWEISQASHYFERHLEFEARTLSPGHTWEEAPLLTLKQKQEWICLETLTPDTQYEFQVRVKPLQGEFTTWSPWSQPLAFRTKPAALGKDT
Sequence of UniProt P14784 (P31785 23-262, chain 2 of 2, further chain): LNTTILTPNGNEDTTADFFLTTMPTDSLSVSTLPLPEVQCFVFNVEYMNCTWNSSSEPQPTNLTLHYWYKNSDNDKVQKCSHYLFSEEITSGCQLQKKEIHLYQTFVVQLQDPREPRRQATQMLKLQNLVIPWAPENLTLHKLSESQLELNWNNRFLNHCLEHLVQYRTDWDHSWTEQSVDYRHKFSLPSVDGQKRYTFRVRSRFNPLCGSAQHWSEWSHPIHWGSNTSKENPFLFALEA

As to IL-2 (from UniProt P60568), the Kd – broadly, the free concentration of one partner at which half of the binding sites on the other are occupied at equilibrium, for simple one-to-one binding – is 1 nM.
